This passage reports OD450 nm and FOB results from patent US20250019450A1 (DIAGONAL THERAPEUTICS, published 2025).

Numbering of substitutions follows the chain as printed.

In assay [1] the target is T1, human IL-12Rβ2-huFc-his (R&D system), biotinylated (human, UniProt Q99665 24-622, limits assumed, biotinylated).
T1 construct: bought; captured on Neutravidin in the ELISA; also called Bio-huIL-12Rβ2-huFc-His
T1 sequence (looked up): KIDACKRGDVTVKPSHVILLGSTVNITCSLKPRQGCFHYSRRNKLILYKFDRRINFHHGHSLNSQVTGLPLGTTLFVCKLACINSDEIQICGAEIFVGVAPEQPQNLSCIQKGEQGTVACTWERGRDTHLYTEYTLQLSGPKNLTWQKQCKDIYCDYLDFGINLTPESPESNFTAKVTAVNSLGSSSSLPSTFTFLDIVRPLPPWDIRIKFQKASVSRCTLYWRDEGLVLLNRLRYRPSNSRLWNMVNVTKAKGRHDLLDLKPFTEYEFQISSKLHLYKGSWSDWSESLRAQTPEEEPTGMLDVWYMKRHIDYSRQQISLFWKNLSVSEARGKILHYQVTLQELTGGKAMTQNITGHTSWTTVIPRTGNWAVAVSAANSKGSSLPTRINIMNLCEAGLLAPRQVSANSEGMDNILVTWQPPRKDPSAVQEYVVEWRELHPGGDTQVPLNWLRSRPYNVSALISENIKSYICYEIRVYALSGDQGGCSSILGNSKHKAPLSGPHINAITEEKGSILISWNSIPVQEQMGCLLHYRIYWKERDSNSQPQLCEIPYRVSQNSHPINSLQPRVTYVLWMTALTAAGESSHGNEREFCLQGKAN
The assay can be described thus: ELISA, periplasmic extract. (In general: In an ELISA, binding on a coated surface is turned into a signal by an enzyme label.)

In assay [2] the target is T2, cyno IL-12RB2 with C-terminal HA tag, transiently expressed on HEK-293T cells (cyno, UniProt A0A2K5VNI7 24-860).
T2 construct: whole, on cells; also called cyno IL-12Rβ2
T2 sequence: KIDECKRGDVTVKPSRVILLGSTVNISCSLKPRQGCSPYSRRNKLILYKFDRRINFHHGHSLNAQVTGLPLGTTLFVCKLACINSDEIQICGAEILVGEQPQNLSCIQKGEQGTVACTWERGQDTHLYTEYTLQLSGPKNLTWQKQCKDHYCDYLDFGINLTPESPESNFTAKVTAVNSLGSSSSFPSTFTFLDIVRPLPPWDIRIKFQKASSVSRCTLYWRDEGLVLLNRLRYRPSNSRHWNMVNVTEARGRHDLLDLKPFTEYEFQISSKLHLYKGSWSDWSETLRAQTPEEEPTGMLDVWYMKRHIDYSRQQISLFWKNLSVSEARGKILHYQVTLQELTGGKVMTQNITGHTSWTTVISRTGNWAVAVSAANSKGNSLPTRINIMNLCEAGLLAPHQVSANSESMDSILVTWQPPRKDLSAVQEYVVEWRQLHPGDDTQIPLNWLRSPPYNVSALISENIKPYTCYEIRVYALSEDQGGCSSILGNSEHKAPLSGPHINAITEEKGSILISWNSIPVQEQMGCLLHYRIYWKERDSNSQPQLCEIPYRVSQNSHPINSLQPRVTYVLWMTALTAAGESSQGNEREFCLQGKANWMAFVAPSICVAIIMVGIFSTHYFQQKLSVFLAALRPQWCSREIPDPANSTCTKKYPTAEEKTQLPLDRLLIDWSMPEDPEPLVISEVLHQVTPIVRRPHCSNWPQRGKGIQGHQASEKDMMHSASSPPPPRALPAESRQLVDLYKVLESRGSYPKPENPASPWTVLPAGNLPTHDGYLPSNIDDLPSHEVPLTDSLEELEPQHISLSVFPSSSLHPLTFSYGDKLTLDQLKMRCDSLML
The assay can be described thus: FACS, periplasmic extract, HEK-293T.

In assay [3] the target is T3, human IL-12RB2 with C-terminal HA tag, transiently expressed on HEK-293T cells (human, UniProt Q99665 24-862).
T3 construct: whole, on cells; also called human IL-12Rβ2
T3 sequence (looked up): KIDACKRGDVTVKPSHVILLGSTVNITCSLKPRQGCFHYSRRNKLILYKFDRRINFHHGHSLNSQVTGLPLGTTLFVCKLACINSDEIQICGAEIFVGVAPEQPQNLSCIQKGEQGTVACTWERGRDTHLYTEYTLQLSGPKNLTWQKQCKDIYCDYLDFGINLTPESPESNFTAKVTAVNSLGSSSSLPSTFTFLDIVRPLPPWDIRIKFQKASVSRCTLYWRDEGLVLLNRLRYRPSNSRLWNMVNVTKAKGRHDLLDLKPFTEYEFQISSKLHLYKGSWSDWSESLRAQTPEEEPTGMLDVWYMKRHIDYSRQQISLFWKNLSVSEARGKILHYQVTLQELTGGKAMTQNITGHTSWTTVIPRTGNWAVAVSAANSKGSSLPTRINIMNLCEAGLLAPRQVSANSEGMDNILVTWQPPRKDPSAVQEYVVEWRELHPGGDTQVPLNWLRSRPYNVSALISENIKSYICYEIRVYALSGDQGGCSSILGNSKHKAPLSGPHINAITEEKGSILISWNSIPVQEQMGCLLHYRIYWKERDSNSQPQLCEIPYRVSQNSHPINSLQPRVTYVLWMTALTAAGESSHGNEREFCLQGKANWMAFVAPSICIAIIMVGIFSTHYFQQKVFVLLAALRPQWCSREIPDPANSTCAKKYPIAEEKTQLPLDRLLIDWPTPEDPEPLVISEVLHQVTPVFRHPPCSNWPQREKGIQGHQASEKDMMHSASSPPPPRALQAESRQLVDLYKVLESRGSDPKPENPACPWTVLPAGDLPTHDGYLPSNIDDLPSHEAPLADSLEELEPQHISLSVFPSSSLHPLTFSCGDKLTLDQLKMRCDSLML
Nature of the assay: FACS, periplasmic extract, HEK-293T.

B1: VHH185B2 (VHH)
VHH: QVQLVESGGGLVQAGGSLRLSCAASGRTFSRYRMGWFRQAPGKEREFVAAITKSGATTYDADSVKGRFTISRDNAKNTLYLQMNSLKPEDTAVYYCAASYHSNWWPKNADEYAYWGQGTQVTVSS
In assay [1], B1 showed an OD450 nm of 2.1. Besides, the figures for the FOB in assay [2] and in assay [3] were 4.18 fold and 2.71 fold, respectively.

B2: VHH190B2 (VHH)
VHH: QVQLQESGPGLVKPSQTLSLTCTVSGGSITTNYYYWSWIRQPPGKGLEWMGAIAYSGSTYYSPSLKSRTSISRDTSKNQFTLQLSSVTPEDTAVYYCASGINFYSNYPTLNEYDYWGQGTQVTVSS
On to B2, for which the OD450 nm in assay [1] turned out to be 0.174. Besides, the values for the FOB in assay [2] and in assay [3] were 3.78 fold and 2.25 fold, respectively.

B3: VHH19B2 (VHH)
VHH: QVQLVESGGGLVQPGGSLRLSCAASGFTFSNYAMSWVRQAPGKGLEWVSAINSDGTSTSYADSVKGQFTISRDNAKNTLYLQMNSLKPEDTAVYYCTKWEGDTDSDYKFKDYWGQGTQVTVSS
Take B3: the OD450 nm in assay [1] stood at 1.3. For the same molecule, the FOB in assay [2] worked out at 2.75 fold; in assay [3] it was 1.63 fold.

B4: VHH13B2 (VHH)
VHH: QVQLVESGGGLVRPGGSLRLSCAASGFTFSSNGMHWFRQAPGKGLEWVSSIGSGGTSIYYADSVKGRFTISRDNAKNTLYLQMNSLKSDDTAVYYCSKEVTGATRGQGTQVTVSS
Molecule B4 yielded an OD450 nm in assay [1] of 1.71. The FOB came to 2.65 fold in assay [2] and 1.77 fold in assay [3].

B5: VHH361B2 (VHH)
VHH: QVQLVESGGGLVQTGASLRLSCAASGRTFGRYEMAWFRQAPGKEREFVAHISSSGLTTTYADSVKGRFTISRGNALNTVYLQMNSLKPEDTAVYYCAANVDGSAWSTLGAGMDYWGKGTLVTISS
Turning to B5, the OD450 nm in assay [1] was 1.35. Also, the figures for the FOB in assay [2] and in assay [3] were 4.01 fold and 2.16 fold, respectively.

B6: VHH230B2 (VHH)
VHH: QVQLVESGGGLVQAGGSLRLSCAASGRTFSSYAMGWFRQAPGKEREFVSAISWSGLSTYYVESVQGRFTISRDNAKNTVYLQMNSLKPEDTAVYYCAASRIYTNYVARSYEYDDWGQGTQVTVSS
In the case of B6, the OD450 nm in assay [1] worked out at 0.308. Moreover, in assay [3], the FOB was found to be 2.05 fold.

B7: VHH94B2 (VHH)
VHH: EVQLVESGGGLVQPGGSLRLSCAASGFTFSSYAMSWVRQAPGKGLEWVSAINSGGDSTSYADSVEGRFTISRDNAKNTLYLQMNSLKPDDTAVYYCAKWSDCSEYGCYDQTTTEGTQVTVSS
For the molecule B7, the OD450 nm in assay [1] is 0.19. For the same molecule, the FOB in assay [2] stood at 3.84 fold; in assay [3], 3.19 fold.

B8: VHH222B2 (VHH)
VHH: QVQLVESGGGLVQAGGSLRLSCAASGRIFSAYRMGWFRQAPGKEREFVAGITWRGQTTYYAASVKGRFTISKDNAKKTVYLQMNSLKPEETAVYYCAVETNGLGRWDRPSEYDYWGQGTQVTVSS
On to B8, for which the OD450 nm in assay [1] was 0.961. The values for the FOB in assay [2] and in assay [3] were 1.28 fold and 3.17 fold, respectively.

B9: VHH322B2 (VHH)
VHH: QLQLVESGGGLVQAGGSLRLSCAASGRTFGIHGMGWFRQAPGKEREFAAAIRWSDGTTIHADSVKGRLTISRDNAKNTVYLQMNSLKPEDTAVYYCAATSNPQFGRNWYTVAAGVEYGYWGQGTQVTVSS
In the case of B9, in assay [1], the OD450 nm came to 1.67. Moreover, the results for the FOB in assay [2] and in assay [3] were 3.21 fold and 1.99 fold, respectively.

B10: VHH68B2 (VHH)
VHH: EVQLVESGGGLVQAGGSLKLSCAASGGTFSSYAMGWFRQAPGKEREFVAAIMRSGDTTVYVDSVKGRFTVSRDNAKNTVYLQMNSLKPEDAAVYYCAAGRPVTRTYYSTYTYPHDYDYWGQGTQVTVSS
In turn, B10 came in with an OD450 nm in assay [1] of 2.13. In addition, the FOB in assay [2] turned out to be 3.47 fold; in assay [3] it was 2.25 fold.

B11: VHH278B2 (VHH)
VHH: B10 VHH with E1Q, A50V, V59A, Y95F, S108H
B11 yielded an OD450 nm in assay [1] of 0.794. Moreover, the FOB in assay [2] worked out at 3.97 fold; in assay [3], 2.46 fold.

B12: VHH289B2 (VHH)
VHH: B10 VHH with E1Q, D56G, D62N, T103S, Y106S, S108Y, T126S
As to B12, in assay [1], the OD450 nm came to 3.19. The values for the FOB in assay [2] and in assay [3] were 2.88 fold and 1.91 fold, respectively.

B13: VHH307B2 (VHH)
VHH: QVQLVESGGGLVQAGGSLRLSCAASGRTFSRYIMGWFRQATGKEREFVAAISWSGLSTHYADSVQGRFTISRDNAENTVYLQMNSLKPEDTAVYYCAADRHWETRLLPREYDYWGQGTQVTVSS
With B13, the OD450 nm in assay [1] amounted to 0.626. Further, the FOB came to 3.16 fold in assay [2] and 1.95 fold in assay [3].

B14: VHH194B2 (VHH)
VHH: QLQLVESGGGLVQAGGSLRLSCAASGLTFSGYTVGWFRQAPGKEREFVAAINWSSAYTYSEFVKGRFTISRDNAKNTVYLQMSSLKPEDTAVYYCAARRSRTSWYASTAEAYDYWGQGTQVTVSS
For the molecule B14, the OD450 nm in assay [1] worked out at 0.602. Also, the FOB in assay [2] was determined as 3.06 fold; in assay [3] it was 1.68 fold.

B15: VHH294B2 (VHH)
VHH: B14 VHH with R98Q
For the molecule B15, the OD450 nm in assay [1] came to 2.2. Moreover, the FOB was 3.19 fold in assay [2] and 1.98 fold in assay [3].

B16: VHH85B2 (VHH)
VHH: QVQLVESGGGLVQAGGSLRVSCAASGRIPSLNTMAWYRQAPGKQREFVAFITNGGTTNYVDSVEGRFSISRDNTKNAVDLQMNSLKPEDTGVYYCNVQISQYPYNYWGQGTQVTVSS
In the case of B16, the OD450 nm in assay [1] stood at 2.99. Besides, the results for the FOB in assay [2] and in assay [3] were 2.31 fold and 1.64 fold, respectively.

B17: VHH356B2 (VHH)
VHH: QLQLVESGGGLVQPGGSLRLSCAASGSIFSINAMGWYRQAPGKQRELVAAITSGGSTAYADSVKGRFTISRDNAKNTVYLQMNSLKPEDTAVYYCNADRDPITSWYVRGDYWGQGTQVTVSS
Take B17: the OD450 nm in assay [1] turned out to be 2.86. In addition, the FOB in assay [3] worked out at 1.43 fold.
